1 substance from US20110236411A1 can be followed below.

For this assay, the target named is purified folded MHC-complex (Example 34, allele and peptide not stated). The assay can be described thus: sandwich ELISA, W6/32 coated, HRP rabbit anti-β2m detection.

In turn, “W6/32 mouse-anti-HLA-ABC antibody (Dako M0736)” showed a fold of OD450 against the negative control β2m of over 6 fold.
